Results from the RNAGym collection of RNA variant scans (doi:10.1073/pnas.2313332121).

B1: TPR t1 (parent)
chain: GACCAAUCUGCCCUCAGAGCUCGAGAACAUCUUCGGAUGCAGAGGAGGCAGGCUUCGGUGGCGCGAUAGCGCCAACGUCCUCAACCUCCAAUGCAUCCCACCACAUGAUGAUGCCUGAAGAGCCUUGGUUUUUUG

Variants of: B1
Assay: polymerase ribozyme fitness, log enrichment relative to wild type (log ratio); higher = more active; in vitro selection for triplet polymerase activity
Outline: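 A heterodimeric triplet polymerase ribozyme had each of its subunits mutagenized by PCR into a library, which was transcribed. One round of in vitro selection, done in triplicate, annealed each library with a biotinylated primer, its partner subunit and triplets, then incubated it frozen at −7 °C before gel excision of extended constructs, streptavidin-bead capture and RT-PCR. Fitness is the logarithm of genotype enrichment relative to wild-type enrichment, based on Illumina sequencing of inputs and outputs and inverse-variance-weighted replicate averages. A base-2 logarithm is used, and genotypes were kept only with ≥10 input reads and ≥1 read per output.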

Q: Which “polymerase ribozyme fitness (log ratio)” value does the source give for U81A G127U here?
A: -2.76

Q: Which “polymerase ribozyme fitness (log ratio)” value does the source give for U81A U87A here?
A: -1.41

Q: Which “polymerase ribozyme fitness (log ratio)” value does the source give for U81A U106C G110A G113C C114U A119G here?
A: -5.29

Q: For U81A U112A, which “polymerase ribozyme fitness (log ratio)” value is on record?
A: 0.19

Q: With U81A U112G as the variant, how does the “polymerase ribozyme fitness (log ratio)” value read?
A: -0.661

Q: With U81C C82A C98U as the variant, how does the “polymerase ribozyme fitness (log ratio)” value read?
A: -3.03

Q: Which “polymerase ribozyme fitness (log ratio)” value does the source give for U81C C123A here?
A: -0.309

Q: For U81C G93A C123A, which “polymerase ribozyme fitness (log ratio)” value is on record?
A: -0.322

Q: For U81G A84C G113A, which “polymerase ribozyme fitness (log ratio)” value is on record?
A: -3.43

Q: Which “polymerase ribozyme fitness (log ratio)” value does the source give for U81G A95G here?
A: -4.01

Q: With U81G A118U as the variant, how does the “polymerase ribozyme fitness (log ratio)” value read?
A: -2.58

Q: For U81G C88A, which “polymerase ribozyme fitness (log ratio)” value is on record?
A: -2.78

Q: For U81G G120U, which “polymerase ribozyme fitness (log ratio)” value is on record?
A: -3.76

Q: Which “polymerase ribozyme fitness (log ratio)” value does the source give for U81G G122U C123G U129A here?
A: -4.51

Q: With U81G G127C as the variant, how does the “polymerase ribozyme fitness (log ratio)” value read?
A: -4.77

Q: With U81G U112A as the variant, how does the “polymerase ribozyme fitness (log ratio)” value read?
A: -4.16

Q: Which “polymerase ribozyme fitness (log ratio)” value does the source give for U81G U131A here?
A: -3.6

Q: With C82A A103G as the variant, how does the “polymerase ribozyme fitness (log ratio)” value read?
A: -4.08

Q: For C82A C89A, which “polymerase ribozyme fitness (log ratio)” value is on record?
A: -2.78

Q: With C82A C89G C101A C102A U112C C123A as the variant, how does the “polymerase ribozyme fitness (log ratio)” value read?
A: -6.34

Q: Which “polymerase ribozyme fitness (log ratio)” value does the source give for C82A C94A C104A here?
A: -3.13

Q: Which “polymerase ribozyme fitness (log ratio)” value does the source give for C82A C98A C114U here?
A: -5.87

Q: With C82A C99U as the variant, how does the “polymerase ribozyme fitness (log ratio)” value read?
A: -4.04

Q: For C82A C102U, which “polymerase ribozyme fitness (log ratio)” value is on record?
A: -1.82

Q: Which “polymerase ribozyme fitness (log ratio)” value does the source give for C82A G93A here?
A: -0.17

Q: Which “polymerase ribozyme fitness (log ratio)” value does the source give for C82A G93C C97U G113U here?
A: -4.46

Q: For C82A G120U, which “polymerase ribozyme fitness (log ratio)” value is on record?
A: 0.156

Q: Which “polymerase ribozyme fitness (log ratio)” value does the source give for C82A U125A here?
A: -0.778

Q: For C82G A84G, which “polymerase ribozyme fitness (log ratio)” value is on record?
A: -0.89

Q: For C82G A90G A91G C101G, which “polymerase ribozyme fitness (log ratio)” value is on record?
A: -2.95

Q: Which “polymerase ribozyme fitness (log ratio)” value does the source give for C82G A90U here?
A: -2.11

Q: With C82G C85A A111G G113U U130G as the variant, how does the “polymerase ribozyme fitness (log ratio)” value read?
A: -4.27

Q: For C82G C88G, which “polymerase ribozyme fitness (log ratio)” value is on record?
A: -1.26

Q: With C82G C101U C115A U125A as the variant, how does the “polymerase ribozyme fitness (log ratio)” value read?
A: -1.73

Q: For C82G G113A, which “polymerase ribozyme fitness (log ratio)” value is on record?
A: -1.04

Q: For C82G G120A, which “polymerase ribozyme fitness (log ratio)” value is on record?
A: -0.124

Q: Which “polymerase ribozyme fitness (log ratio)” value does the source give for C82G G120U here?
A: -0.592

Q: With C82G G127A as the variant, how does the “polymerase ribozyme fitness (log ratio)” value read?
A: -2

Q: Which “polymerase ribozyme fitness (log ratio)” value does the source give for C82U A83U A111U here?
A: -3.12

Q: With C82U A90U C97U A118G as the variant, how does the “polymerase ribozyme fitness (log ratio)” value read?
A: -2.4

Q: With C82U A95G as the variant, how does the “polymerase ribozyme fitness (log ratio)” value read?
A: 0.358

Q: For C82U C115A, which “polymerase ribozyme fitness (log ratio)” value is on record?
A: -0.595

Q: Which “polymerase ribozyme fitness (log ratio)” value does the source give for C82U C115U here?
A: -1.02

Q: With C82U G120U as the variant, how does the “polymerase ribozyme fitness (log ratio)” value read?
A: 0.312

Q: For C82U G127U, which “polymerase ribozyme fitness (log ratio)” value is on record?
A: -0.724

Q: Which “polymerase ribozyme fitness (log ratio)” value does the source give for C82U U96G here?
A: -1.12

Q: Which “polymerase ribozyme fitness (log ratio)” value does the source give for C82U U96G G127U here?
A: -1.83

Q: Which “polymerase ribozyme fitness (log ratio)” value does the source give for C82U U109G U130G here?
A: -6.23

Q: For C82U U112A, which “polymerase ribozyme fitness (log ratio)” value is on record?
A: 1.08

Q: For C82U U112A U130G, which “polymerase ribozyme fitness (log ratio)” value is on record?
A: 0.499

Q: With A83C as the variant, how does the “polymerase ribozyme fitness (log ratio)” value read?
A: -0.225

Q: For A83C A84C, which “polymerase ribozyme fitness (log ratio)” value is on record?
A: -0.925

Q: For A83C A84C A119G, which “polymerase ribozyme fitness (log ratio)” value is on record?
A: 0.957

Q: With A83C C85A C115A G117A as the variant, how does the “polymerase ribozyme fitness (log ratio)” value read?
A: -6.05

Q: For A83C C89U A95C, which “polymerase ribozyme fitness (log ratio)” value is on record?
A: -0.794

Q: With A83C C97A as the variant, how does the “polymerase ribozyme fitness (log ratio)” value read?
A: -3.66

Q: Which “polymerase ribozyme fitness (log ratio)” value does the source give for A83C C101A here?
A: -1.18

Q: For A83C C114G U132A, which “polymerase ribozyme fitness (log ratio)” value is on record?
A: -2.52

Q: For A83C U126C, which “polymerase ribozyme fitness (log ratio)” value is on record?
A: -1.26

Q: For A83G, which “polymerase ribozyme fitness (log ratio)” value is on record?
A: -0.489

Q: With A83G A84G C99U as the variant, how does the “polymerase ribozyme fitness (log ratio)” value read?
A: -5.16

Q: With A83G A84U C102A U112A G127U as the variant, how does the “polymerase ribozyme fitness (log ratio)” value read?
A: -3.04

Q: For A83G C86G G127U U132C, which “polymerase ribozyme fitness (log ratio)” value is on record?
A: -2.25

Q: For A83G G110A, which “polymerase ribozyme fitness (log ratio)” value is on record?
A: -1.35

Q: Which “polymerase ribozyme fitness (log ratio)” value does the source give for A83G G120A here?
A: 0.774

Q: Which “polymerase ribozyme fitness (log ratio)” value does the source give for A83G G120C here?
A: 0.655

Q: With A83U as the variant, how does the “polymerase ribozyme fitness (log ratio)” value read?
A: -0.119

Q: With A83U C88A G128C as the variant, how does the “polymerase ribozyme fitness (log ratio)” value read?
A: -3.29

Q: With A83U C89A U96A as the variant, how does the “polymerase ribozyme fitness (log ratio)” value read?
A: -2.34

Q: Which “polymerase ribozyme fitness (log ratio)” value does the source give for A83U C89U U96C U131G here?
A: -1.02

Q: With A83U C101G as the variant, how does the “polymerase ribozyme fitness (log ratio)” value read?
A: -1.74

Q: For A83U C114A, which “polymerase ribozyme fitness (log ratio)” value is on record?
A: -1.1

Q: With A83U G113C G120U U132A as the variant, how does the “polymerase ribozyme fitness (log ratio)” value read?
A: -4.48

Q: For A83U G127U, which “polymerase ribozyme fitness (log ratio)” value is on record?
A: -1.08

Q: With A83U U133G as the variant, how does the “polymerase ribozyme fitness (log ratio)” value read?
A: -0.873

Q: With A84C C88A as the variant, how does the “polymerase ribozyme fitness (log ratio)” value read?
A: -0.593

Q: For A84C C89A G113A, which “polymerase ribozyme fitness (log ratio)” value is on record?
A: -2.63

Q: With A84C C98U as the variant, how does the “polymerase ribozyme fitness (log ratio)” value read?
A: -1.5

Q: For A84G C85U, which “polymerase ribozyme fitness (log ratio)” value is on record?
A: 0.384

Q: For A84G C86A U96C G113A, which “polymerase ribozyme fitness (log ratio)” value is on record?
A: -2.94

Q: Which “polymerase ribozyme fitness (log ratio)” value does the source give for A84G G93C G127U here?
A: -1.68

Q: With A84G G120A as the variant, how does the “polymerase ribozyme fitness (log ratio)” value read?
A: -0.185

Q: Which “polymerase ribozyme fitness (log ratio)” value does the source give for A84G G122A here?
A: -1.44

Q: For A84G U106G, which “polymerase ribozyme fitness (log ratio)” value is on record?
A: -3.32
